Assay results taken from patent publication US20250115664A1.
pEC50: −log10 of the molar value.

Experiments:
[1] = molecular target: mouse TIM3 on cells (transfected cells, activated mouse T cells) (mouse) (UniProt Q8VIM0); assay: binding to activated mouse T cells
[2] = molecular target: mouse TIM3 on cells (transfected cells, activated mouse T cells) (mouse) (UniProt Q8VIM0); assay: binding to activated mouse T cells, against TIM3.18 on human TIM3
[3] = molecular target: cynomolgus TIM3 on cells (transfected CHO cells, activated cyno T cells, cyno spleen) (cynomolgus); assay: flow cytometry, cyno TIM3-transfected CHO cells (Geo-MFI); fit value of a flat negative-control curve, far beyond the tested range; unit from the axis label
Sequence of cynomolgus TIM3 on cells (transfected CHO cells, activated cyno T cells, cyno spleen) (cynomolgus) (chain, as listed by the source limits assumed): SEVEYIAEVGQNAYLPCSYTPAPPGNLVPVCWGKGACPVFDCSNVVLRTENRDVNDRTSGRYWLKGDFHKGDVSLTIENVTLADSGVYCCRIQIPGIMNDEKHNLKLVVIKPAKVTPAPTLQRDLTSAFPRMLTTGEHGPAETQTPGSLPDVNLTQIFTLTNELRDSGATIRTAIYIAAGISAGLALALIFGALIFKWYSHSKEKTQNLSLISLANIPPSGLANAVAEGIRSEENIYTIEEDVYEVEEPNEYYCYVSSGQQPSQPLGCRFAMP

[4] = molecular target: human TIM3 on cells (transfected CHO cells, activated human T cells, Th1 cells, TILs) (human) (UniProt Q8TDQ0); assay: flow cytometry, human TIM3-transfected CHO cells (Geo-MFI); fit value of a flat negative-control curve, far beyond the tested range; unit from the axis label

Sequence of mouse TIM3 on cells (transfected cells, activated mouse T cells) (mouse) (Q8VIM0 20-281): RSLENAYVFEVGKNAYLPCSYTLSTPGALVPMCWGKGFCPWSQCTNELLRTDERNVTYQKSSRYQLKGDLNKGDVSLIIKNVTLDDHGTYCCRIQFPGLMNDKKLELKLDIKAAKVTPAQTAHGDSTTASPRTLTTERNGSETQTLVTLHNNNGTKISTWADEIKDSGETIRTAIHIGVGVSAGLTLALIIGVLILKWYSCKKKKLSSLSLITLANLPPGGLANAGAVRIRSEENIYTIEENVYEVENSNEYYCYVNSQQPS

Substance: RMT3-23 rat anti-mouse TIM3 antibody
- pEC50 [1]: 8.77
- fold weaker EC50 than TIM3.18 on human TIM3 [2]: 17 fold

Substance: hIgG1 (antibody)
- EC50 [3]: 75.7 mg/mL
- EC50 [4]: 39.7 mg/mL

Substance: hIgG2 (antibody)
- EC50 [3]: 44.5 mg/mL
- EC50 [4]: 42.3 mg/mL

Substance: hIgG4 (antibody)
- EC50 [3]: 54.1 mg/mL
- EC50 [4]: 29.3 mg/mL
